Source: paper PMC11630572

Experiments:
[1] = target: recombinant spike ectodomain of SARS-CoV-2 Omicron subvariant BA.5 (SARS-CoV-2); assay: cryo-EM structure; complexes of BA.5 or JN.1 spike ectodomain with Nanosota-9-His (0.8 uM); three Nanosota-9 on each trimeric spike, two of them crosslinking two RBDs (2:2 mode)
[2] = target: recombinant spike ectodomain of SARS-CoV-2 Omicron subvariant JN.1 (SARS-CoV-2); assay: as above

| Substance | stoichiometry N [1] | stoichiometry N [2] |
| --- | --- | --- |
| recombinant spike ectodomain of SARS-CoV-2 Omicron subvariant BA.5 (domain or fragment) | 3 |  |
| recombinant spike ectodomain of SARS-CoV-2 Omicron subvariant JN.1 (domain or fragment) |  | 3 |
